Test results: US20190177716A1

Legend:
[1] = molecular target: CD3ε of the TCR-CD3 complex expressed on Jurkat cells (T-cell Surface Glycoprotein CD3 Epsilon) (human) (UniProt P07766); test: flow cytometry on Jurkat.E6 cells at 25 C, secondary goat anti-mouse IgG staining, one-site specific binding fit
[2] = molecular target: CD28 expressed on Jurkat.E6 cells (human) (UniProt P10747); test: as above

Kd [1] | Kd [2] | Substance
1.4 nM | – | anti-CD3 monoclonal antibody clone UCHT1 (mouse anti-human, isotype IgG1, BioXCell Catalog# BE0231)
– | 1.6 nM | anti-CD28 monoclonal antibody (mouse anti-human, isotype IgG2a, Clone 9.3, BioXCell Catalog# BE0248)
1.5 nM | – | anti-CD3 monoclonal antibody clone OKT3 (mouse anti-human, isotype IgG2a, BioXCell Catalog# BE0001-2)
